The record followed here is patent US20100330578 (published 2010).

For the data set, the target named is human alpha-thrombin (Homo sapiens, UniProt P00734;P00734 P00734:328-363,P00734:364-622). Kind of data set: MST; 100 nM aptamer titrated with 0-16580 nM thrombin; 10% human serum, 1x SSC (150 mM NaCl, 15 mM Na3-citrate, pH 7.2), 5 mM KCl, 1 mM CaCl2, 1 mM MgCl2; IR-laser t.

As to TGGTTGGTGTGGTTGGT (ssDNA) [Cy5-labelled thrombin DNA aptamer], the binding result is on record as “binds”.
